Results from IntAct's records for PubMed 23164639.

B1: Peroxiredoxin-6 (Mus musculus), O08709 (parent)
chain: MPGGLLLGDEAPNFEANTTIGRIRFHDFLGDSWGILFSHPRDFTPVCTTELGRAAKLAPEFAKRNVKLIALSIDSVEDHLAWSKDINAYNGETPTEKLPFPIIDDKGRDLAILLGMLDPVEKDDNNMPVTARVVFIFGPDKKLKLSILYPATTGRNFDEILRVVDSLQLTGTKPVATPVDWKKGESVMVVPTLSEEEAKQCFPKGVFTKELPSGKKYLRYTPQP

Variants of: B1
Conditions: with gstp1_mouse Gstp1, P19157
Chain of gstp1_mouse Gstp1, P19157 (P19157 whole entry): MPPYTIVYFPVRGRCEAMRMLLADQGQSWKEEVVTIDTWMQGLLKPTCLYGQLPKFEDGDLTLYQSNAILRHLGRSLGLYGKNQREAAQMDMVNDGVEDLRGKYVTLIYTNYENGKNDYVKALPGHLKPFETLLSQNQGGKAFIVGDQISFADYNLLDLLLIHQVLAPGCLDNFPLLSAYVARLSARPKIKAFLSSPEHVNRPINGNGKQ

| effect of a mutation on the interaction | Variant |
| --- | --- |
| disrupting interaction | MPGGLLLGDEAPNFEANTTIGRIRFHDFLGDSWGILFSHPRDFTPVSTTELGRAAKLAPEFAKRNVKLIALSIDSVEDHLAWSKDINAYNGETPTEKLPFPIIDDKGRDLAILLGMLDPVEKDDNNMPVTARVVFIFGPDKKLKLSILYPATTGRNFDEILRVVDSLQLTGTKPVATPVDWKKGESVMVVPTLSEEEAKQCFPKGVFTKELPSGKKYLRYTPQP [C47S] |
